Where a chain is given by its changes, count along the chain named.
T1: human GLP-2 receptor (hGLP2-R) (human, UniProt O95838 1-553)
T1 sequence (looked up): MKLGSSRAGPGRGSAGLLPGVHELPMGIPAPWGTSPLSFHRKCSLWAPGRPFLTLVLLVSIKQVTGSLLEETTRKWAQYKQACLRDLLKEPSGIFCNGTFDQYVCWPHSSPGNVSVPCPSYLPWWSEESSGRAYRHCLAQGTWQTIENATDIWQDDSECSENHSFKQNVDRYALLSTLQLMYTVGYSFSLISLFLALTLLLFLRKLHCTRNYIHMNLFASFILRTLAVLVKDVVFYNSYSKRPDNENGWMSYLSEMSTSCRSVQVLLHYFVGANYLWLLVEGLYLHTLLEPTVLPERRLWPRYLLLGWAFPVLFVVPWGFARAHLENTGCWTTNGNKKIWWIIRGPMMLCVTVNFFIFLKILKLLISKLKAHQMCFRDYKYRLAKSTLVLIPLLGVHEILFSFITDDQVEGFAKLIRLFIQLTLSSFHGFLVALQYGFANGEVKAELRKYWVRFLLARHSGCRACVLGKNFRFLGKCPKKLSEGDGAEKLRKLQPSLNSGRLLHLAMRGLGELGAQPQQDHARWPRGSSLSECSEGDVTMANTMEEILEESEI

B1: Compound 9 (peptide)
peptide: HXEGTFTSELATILDGXAARDFIAWLIEHKITD
HELM: PEPTIDE1{H.[Aib].E.G.T.F.T.S.E.L.A.T.I.L.D.G.K.A.A.R.D.F.I.A.W.L.I.E.H.K.I.T.D}|PEPTIDE2{[O=C(O)CCCCCCCCCCCCCCCCC(=O)[*:2]].[gGlu]}$PEPTIDE1,PEPTIDE2,17:R3-2:R2$$$V2.0
SMILES: CC[C@H](C)[C@H](NC(=O)[C@H](Cc1ccccc1)NC(=O)[C@H](CC(=O)O)NC(=O)[C@H](CCCNC(=N)N)NC(=O)[C@H](C)NC(=O)[C@H](C)NC(=O)[C@H](CCCCNC(=O)CC[C@H](NC(=O)CCCCCCCCCCCCCCCCC(=O)O)C(=O)O)NC(=O)CNC(=O)[C@H](CC(=O)O)NC(=O)[C@H](CC(C)C)NC(=O)[C@@H](NC(=O)[C@@H](NC(=O)[C@H](C)NC(=O)[C@H](CC(C)C)NC(=O)[C@H](CCC(=O)O)NC(=O)[C@H](CO)NC(=O)[C@@H](NC(=O)[C@H](Cc1ccccc1)NC(=O)[C@@H](NC(=O)CNC(=O)[C@H](CCC(=O)O)NC(=O)C(C)(C)NC(=O)[C@@H](N)Cc1c[nH]cn1)[C@@H](C)O)[C@@H](C)O)[C@@H](C)O)[C@@H](C)CC)C(=O)N[C@@H](C)C(=O)N[C@@H](Cc1c[nH]c2ccccc12)C(=O)N[C@@H](CC(C)C)C(=O)N[C@H](C(=O)N[C@@H](CCC(=O)O)C(=O)N[C@@H](Cc1c[nH]cn1)C(=O)N[C@@H](CCCCN)C(=O)N[C@H](C(=O)N[C@H](C(=O)N[C@@H](CC(=O)O)C(=O)O)[C@@H](C)O)[C@@H](C)CC)[C@@H](C)CC
B2: Compound 14 (peptide)
peptide: B1 peptide with T5S, G16X, X17L, E28A
HELM: PEPTIDE1{H.[Aib].E.G.S.F.T.S.E.L.A.T.I.L.D.K.L.A.A.R.D.F.I.A.W.L.I.A.H.K.I.T.D}|PEPTIDE2{[O=C(O)CCCCCCCCCCCCCCCCC(=O)[*:2]].[gGlu]}$PEPTIDE1,PEPTIDE2,16:R3-2:R2$$$V2.0
SMILES: CC[C@H](C)[C@H](NC(=O)[C@H](CC(C)C)NC(=O)[C@H](Cc1c[nH]c2ccccc12)NC(=O)[C@H](C)NC(=O)[C@@H](NC(=O)[C@H](Cc1ccccc1)NC(=O)[C@H](CC(=O)O)NC(=O)[C@H](CCCNC(=N)N)NC(=O)[C@H](C)NC(=O)[C@H](C)NC(=O)[C@H](CC(C)C)NC(=O)[C@H](CCCCNC(=O)CC[C@H](NC(=O)CCCCCCCCCCCCCCCCC(=O)O)C(=O)O)NC(=O)[C@H](CC(=O)O)NC(=O)[C@H](CC(C)C)NC(=O)[C@@H](NC(=O)[C@@H](NC(=O)[C@H](C)NC(=O)[C@H](CC(C)C)NC(=O)[C@H](CCC(=O)O)NC(=O)[C@H](CO)NC(=O)[C@@H](NC(=O)[C@H](Cc1ccccc1)NC(=O)[C@H](CO)NC(=O)CNC(=O)[C@H](CCC(=O)O)NC(=O)C(C)(C)NC(=O)[C@@H](N)Cc1c[nH]cn1)[C@@H](C)O)[C@@H](C)O)[C@@H](C)CC)[C@@H](C)CC)C(=O)N[C@@H](C)C(=O)N[C@@H](Cc1c[nH]cn1)C(=O)N[C@@H](CCCCN)C(=O)N[C@H](C(=O)N[C@H](C(=O)N[C@@H](CC(=O)O)C(=O)O)[C@@H](C)O)[C@@H](C)CC
B3: Compound 10 (peptide)
peptide: B1 peptide with T7S, G16X, X17L
HELM: PEPTIDE1{H.[Aib].E.G.T.F.S.S.E.L.A.T.I.L.D.K.L.A.A.R.D.F.I.A.W.L.I.E.H.K.I.T.D}|PEPTIDE2{[O=C(O)CCCCCCCCCCCCCCCCC(=O)[*:2]].[gGlu]}$PEPTIDE1,PEPTIDE2,16:R3-2:R2$$$V2.0
SMILES: CC[C@H](C)[C@H](NC(=O)[C@H](Cc1ccccc1)NC(=O)[C@H](CC(=O)O)NC(=O)[C@H](CCCNC(=N)N)NC(=O)[C@H](C)NC(=O)[C@H](C)NC(=O)[C@H](CC(C)C)NC(=O)[C@H](CCCCNC(=O)CC[C@H](NC(=O)CCCCCCCCCCCCCCCCC(=O)O)C(=O)O)NC(=O)[C@H](CC(=O)O)NC(=O)[C@H](CC(C)C)NC(=O)[C@@H](NC(=O)[C@@H](NC(=O)[C@H](C)NC(=O)[C@H](CC(C)C)NC(=O)[C@H](CCC(=O)O)NC(=O)[C@H](CO)NC(=O)[C@H](CO)NC(=O)[C@H](Cc1ccccc1)NC(=O)[C@@H](NC(=O)CNC(=O)[C@H](CCC(=O)O)NC(=O)C(C)(C)NC(=O)[C@@H](N)Cc1c[nH]cn1)[C@@H](C)O)[C@@H](C)O)[C@@H](C)CC)C(=O)N[C@@H](C)C(=O)N[C@@H](Cc1c[nH]c2ccccc12)C(=O)N[C@@H](CC(C)C)C(=O)N[C@H](C(=O)N[C@@H](CCC(=O)O)C(=O)N[C@@H](Cc1c[nH]cn1)C(=O)N[C@@H](CCCCN)C(=O)N[C@H](C(=O)N[C@H](C(=O)N[C@@H](CC(=O)O)C(=O)O)[C@@H](C)O)[C@@H](C)CC)[C@@H](C)CC
B4: Compound 11 (peptide)
peptide: B1 peptide with T5S, G16X, X17L
HELM: PEPTIDE1{H.[Aib].E.G.S.F.T.S.E.L.A.T.I.L.D.K.L.A.A.R.D.F.I.A.W.L.I.E.H.K.I.T.D}|PEPTIDE2{[O=C(O)CCCCCCCCCCCCCCCCC(=O)[*:2]].[gGlu]}$PEPTIDE1,PEPTIDE2,16:R3-2:R2$$$V2.0
SMILES: CC[C@H](C)[C@H](NC(=O)[C@H](Cc1ccccc1)NC(=O)[C@H](CC(=O)O)NC(=O)[C@H](CCCNC(=N)N)NC(=O)[C@H](C)NC(=O)[C@H](C)NC(=O)[C@H](CC(C)C)NC(=O)[C@H](CCCCNC(=O)CC[C@H](NC(=O)CCCCCCCCCCCCCCCCC(=O)O)C(=O)O)NC(=O)[C@H](CC(=O)O)NC(=O)[C@H](CC(C)C)NC(=O)[C@@H](NC(=O)[C@@H](NC(=O)[C@H](C)NC(=O)[C@H](CC(C)C)NC(=O)[C@H](CCC(=O)O)NC(=O)[C@H](CO)NC(=O)[C@@H](NC(=O)[C@H](Cc1ccccc1)NC(=O)[C@H](CO)NC(=O)CNC(=O)[C@H](CCC(=O)O)NC(=O)C(C)(C)NC(=O)[C@@H](N)Cc1c[nH]cn1)[C@@H](C)O)[C@@H](C)O)[C@@H](C)CC)C(=O)N[C@@H](C)C(=O)N[C@@H](Cc1c[nH]c2ccccc12)C(=O)N[C@@H](CC(C)C)C(=O)N[C@H](C(=O)N[C@@H](CCC(=O)O)C(=O)N[C@@H](Cc1c[nH]cn1)C(=O)N[C@@H](CCCCN)C(=O)N[C@H](C(=O)N[C@H](C(=O)N[C@@H](CC(=O)O)C(=O)O)[C@@H](C)O)[C@@H](C)CC)[C@@H](C)CC
B5: Compound 13 (peptide)
peptide: B1 peptide with T7S, G16X, X17L, E28A
HELM: PEPTIDE1{H.[Aib].E.G.T.F.S.S.E.L.A.T.I.L.D.K.L.A.A.R.D.F.I.A.W.L.I.A.H.K.I.T.D}|PEPTIDE2{[O=C(O)CCCCCCCCCCCCCCCCC(=O)[*:2]].[gGlu]}$PEPTIDE1,PEPTIDE2,16:R3-2:R2$$$V2.0
SMILES: CC[C@H](C)[C@H](NC(=O)[C@H](CC(C)C)NC(=O)[C@H](Cc1c[nH]c2ccccc12)NC(=O)[C@H](C)NC(=O)[C@@H](NC(=O)[C@H](Cc1ccccc1)NC(=O)[C@H](CC(=O)O)NC(=O)[C@H](CCCNC(=N)N)NC(=O)[C@H](C)NC(=O)[C@H](C)NC(=O)[C@H](CC(C)C)NC(=O)[C@H](CCCCNC(=O)CC[C@H](NC(=O)CCCCCCCCCCCCCCCCC(=O)O)C(=O)O)NC(=O)[C@H](CC(=O)O)NC(=O)[C@H](CC(C)C)NC(=O)[C@@H](NC(=O)[C@@H](NC(=O)[C@H](C)NC(=O)[C@H](CC(C)C)NC(=O)[C@H](CCC(=O)O)NC(=O)[C@H](CO)NC(=O)[C@H](CO)NC(=O)[C@H](Cc1ccccc1)NC(=O)[C@@H](NC(=O)CNC(=O)[C@H](CCC(=O)O)NC(=O)C(C)(C)NC(=O)[C@@H](N)Cc1c[nH]cn1)[C@@H](C)O)[C@@H](C)O)[C@@H](C)CC)[C@@H](C)CC)C(=O)N[C@@H](C)C(=O)N[C@@H](Cc1c[nH]cn1)C(=O)N[C@@H](CCCCN)C(=O)N[C@H](C(=O)N[C@H](C(=O)N[C@@H](CC(=O)O)C(=O)O)[C@@H](C)O)[C@@H](C)CC
B6: Compound 12 (peptide)
peptide: B1 peptide with G16X, X17L
HELM: PEPTIDE1{H.[Aib].E.G.T.F.T.S.E.L.A.T.I.L.D.K.L.A.A.R.D.F.I.A.W.L.I.E.H.K.I.T.D}|PEPTIDE2{[O=C(O)CCCCCCCCCCCCCCCCC(=O)[*:2]].[gGlu]}$PEPTIDE1,PEPTIDE2,16:R3-2:R2$$$V2.0
SMILES: CC[C@H](C)[C@H](NC(=O)[C@H](Cc1ccccc1)NC(=O)[C@H](CC(=O)O)NC(=O)[C@H](CCCNC(=N)N)NC(=O)[C@H](C)NC(=O)[C@H](C)NC(=O)[C@H](CC(C)C)NC(=O)[C@H](CCCCNC(=O)CC[C@H](NC(=O)CCCCCCCCCCCCCCCCC(=O)O)C(=O)O)NC(=O)[C@H](CC(=O)O)NC(=O)[C@H](CC(C)C)NC(=O)[C@@H](NC(=O)[C@@H](NC(=O)[C@H](C)NC(=O)[C@H](CC(C)C)NC(=O)[C@H](CCC(=O)O)NC(=O)[C@H](CO)NC(=O)[C@@H](NC(=O)[C@H](Cc1ccccc1)NC(=O)[C@@H](NC(=O)CNC(=O)[C@H](CCC(=O)O)NC(=O)C(C)(C)NC(=O)[C@@H](N)Cc1c[nH]cn1)[C@@H](C)O)[C@@H](C)O)[C@@H](C)O)[C@@H](C)CC)C(=O)N[C@@H](C)C(=O)N[C@@H](Cc1c[nH]c2ccccc12)C(=O)N[C@@H](CC(C)C)C(=O)N[C@H](C(=O)N[C@@H](CCC(=O)O)C(=O)N[C@@H](Cc1c[nH]cn1)C(=O)N[C@@H](CCCCN)C(=O)N[C@H](C(=O)N[C@H](C(=O)N[C@@H](CC(=O)O)C(=O)O)[C@@H](C)O)[C@@H](C)CC)[C@@H](C)CC

target: T1, human GLP-2 receptor (hGLP2-R); assay: cell-based or functional assay

Row | EC50 GLP-2 (nM); cAMP response [nM] | Binder
1 | 0.056 | B1
2 | 0.086 | B2
3 | 0.087 | B3
4 | 0.085 | B4
5 | 0.099 | B5
6 | 0.11 | B6

target: human glucagon-like peptide 1 receptor (GLP-1 R) (human, UniProt P43220 24-463); assay: cell-based or functional assay

Row | EC50 GLP-1 (nM); cAMP response [nM] | Binder
7 | 0.056 | B1
8 | 0.57 | B2
9 | 1.8 | B3
10 | 0.32 | B4
11 | 2.2 | B5
12 | 0.14 | B6

From patent US20200297818A1 (ZEALAND PHARMA A S, published 2020)
